The results in this text go back to paper PMC4619449, “Heterodimerization of Two Pathological Mutants Enhances the Activity of Human Phosphomannomutase2” (PLoS ONE, 2015).

Residue numbers refer to the chain shown, from its start. Numbers in names are those of the source.

Data set [1] deals with T1, F119L phosphomannomutase2 (human) (UniProt O15305).
T1 sequence: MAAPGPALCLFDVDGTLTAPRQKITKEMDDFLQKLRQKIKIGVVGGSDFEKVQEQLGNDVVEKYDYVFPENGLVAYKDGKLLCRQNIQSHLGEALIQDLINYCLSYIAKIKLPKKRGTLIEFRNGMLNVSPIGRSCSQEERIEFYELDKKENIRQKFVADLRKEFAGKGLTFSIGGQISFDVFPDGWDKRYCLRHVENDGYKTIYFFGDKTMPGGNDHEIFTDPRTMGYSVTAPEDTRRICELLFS

Data set [2] deals with the molecule itself. Kind of data set: SEC; analytical, BioSep-SEC-S3000 column, Hepes 20 mM pH 7.5, NaCl 150 mM, MgCl2 5 mM, room temperature, 0.5 ml/min; wt-PMM2 10 μg, F119L 7 μg, or mixture of 5 μg wt-PMM2 and 3.5 μg F119L. (SEC sorts molecules by how far they enter the pores of the column.)

B1: R141H phosphomannomutase2 (enzyme)
chain: T1 sequence with L119F, R141H
On to B1, for which the corrected specific phosphoglucomutase activity (per amount of F119L) of Superdex75 fractions, F119L:R141H 1:1 to 1:3.5, compared with F119L alone; 5 μM Glc-1,6-P2 and 40 μM Glc-1P in data set [1] turned out to be 3 fold.

B2: wild type phosphomannomutase2 (enzyme, human, UniProt O15305-1 1-246, looked up)
chain: T1 sequence with L119F
notes: Phosphomannomutase2 (PMM2), human, UniProt entry name PMM2_HUMAN; also called wt-PMM2; PMM2
Take B2: the binding result in data set [2] is on record as “binds”.

B3: F119L phosphomannomutase2 (enzyme, human, UniProt O15305-1 1-246, looked up)
chain: T1 sequence
notes: Phosphomannomutase2 (PMM2), human, pathological variant p.Phe119Leu (rs80338701); also called hypomorphic mutant
Regarding B3, in data set [2], the binding result is reported as “binds”.
